# Experimental data reported in PMC5065529, “Wnt Signalosome Assembly by DEP Domain Swapping of Dishevelled” (Molecular Cell, 2016).
# Values joined by “and” are separate entries in the source; they are usually repeats but may differ in a detail not shown here. Identical values can stand only once.
# B1: Lip-DEP_(416–511) L445E (domain or fragment, human, UniProt O14641 416-511, looked up)
# chain: GLSVHTDMASVTKAMAAPESGLEVRDRMWEKITIPNAFLGSDVVDWLYHHVEGFPERREARKYASGLLKAGLIRHTVNKITFSEQCYYVFGDLSGG
# notes: Dishevelled 2 (DVL2), human, DEP domain, residues 416-511; source: E. coli BL21-CodonPlus(DE3)-RIL, purified
# B2: Lip-DEP_(416–511) MLI > AAA (domain or fragment, human, UniProt O14641 416-511, looked up)
# chain: GLSVHTDMASVTKAMAAPESGLEVRDRAWAKATIPNAFLGSDVVDWLYHHVEGFPERREARKYASGLLKAGLIRHTVNKITFSEQCYYVFGDLSGG
# notes: Dishevelled 2 (DVL2), human, DEP domain, residues 416-511; the hydrophobic triad M443, L445, I447 changed to alanines; also called triple-alanine mutation of the hydrophobic triad; source: E. coli BL21-CodonPlus(DE3)-RIL, purified
# B3: Lip-DEP_(416–511), lipoyl-tagged DEP domain of DVL2 (domain or fragment, human, UniProt O14641 416-511, looked up)
# chain: GLSVHTDMASVTKAMAAPESGLEVRDRMWLKITIPNAFLGSDVVDWLYHHVEGFPERREARKYASGLLKAGLIRHTVNKITFSEQCYYVFGDLSGG
# notes: Dishevelled 2 (DVL2), human, DEP domain, residues 416-511; Purified essentially as in Fiedler et al., 2011; details in the Supplemental Information; also called purified DEP; wt; source: E. coli BL21-CodonPlus(DE3)-RIL, purified (SEC)
# Experiments:
# [1] = molecular target: DEP_(414–507)-GFP, minimal DEP domain of DVL2 (UniProt O14641); assay: FZD5-dependent PM recruitment of DEP-GFP (cell scoring); conditions: 100 cells scored in each case, label printed as 'T526A:S529', new residue at 529 not given, read off a plot
# [2] = molecular target: the molecule itself; assay: SEC-MALS; purified Lip-DEP_(416–511), WT or mutant, unfractionated or purified fractions; PBS, GE Superdex S-200 10/300 analytical column
molecule,measurement,setting,value
"SNAP-FZD5 (Frizzled 5), wild type (from UniProt Q13467) T526A:S529",other: % of cells with strong PM recruitment,[1]; parent: est. 52,3 % of cells
same,other: % of cells with strong or weak PM recruitment (top of weak segment),[1]; parent: est. 88,24 % of cells
B1,binding result,[2],binds
B2,binding result,[2],binds
B3,stoichiometry N,[2],2 and 4
